Reference: patent US20190352359A1 (IMMATICS BIOTECHNOLOGIES, published 2019)

target: T1, HLA-A*24; assay: UV peptide-exchange ELISA (anti-b2m); yield grade + = >10%
T1 construct: Monomers captured on streptavidin plates; also called peptide-receptive MHC molecules; MHC complexes
Source text: (§1) Candidate peptides for T cell based therapies according to the present invention were further tested for their MHC binding capacity (affinity). The individual peptide-MHC complexes were produced by UV-ligand exchange, where a UV-sensitive peptide is cleaved upon UV-irradiation, and exchanged with the peptide of interest as analyzed. Only peptide candidates that can effectively bind and stabilize the peptide-receptive MHC molecules prevent dissociation of the MHC complexes. To determine the yield of the exchange reaction, an ELISA was performed based on the detection of the light chain (p2m) of stabilized MHC complexes. The assay was performed as generally described in Rodenko et al. (Rodenko et al., 2006)
(§2) 96 well MAXISorp plates (NUNC) were coated over night with 2 ug/ml streptavidin in PBS at room temperature, washed 4× and blocked for 1 h at 37° C. in 2% BSA containing blocking buffer. Refolded HLA-A*02:01/MLA-001 monomers served as standards, covering the range of 15-500 ng/ml. Peptide-MHC monomers of the UV-exchange reaction were diluted 100-fold in blocking buffer. Samples were incubated for 1 h at 37° C., washed four times, incubated with 2 ug/ml HRP conjugated anti-β2m for 1h at 37° C., washed again and detected with TMB solution that is stopped with […]. Absorption was measured at 450 nm. Candidate peptides that show a high exchange yield (preferably higher than 50%, most preferred higher than 75%) are generally preferred for a generation and production of antibodies or fragments thereof, and/or T cell receptors or fragments thereof, as they show sufficient avidity to the MHC molecules and prevent dissociation of the MHC complexes.

How did the peptide exchange yield turn out when FPPTPPLF (also called FPPTPPLF) [BCL11A-002] was run?
Its peptide exchange yield is 10 to 20%.

With SHSDHEFLF (also called SHSDHEFLF) [ARSH-001] as the binder, how does the peptide exchange yield read?
The peptide exchange yield was 10 to 20%.

How did the peptide exchange yield turn out when RVHANPLLI (also called RVHANPLLI) [APOB-081] was run?
The peptide exchange yield was 10 to 20%.

With LQIPVSPSF (also called LQIPVSPSF) [MAGEC1-004] as the binder, how does the peptide exchange yield read?
The peptide exchange yield was 10 to 20%.

Which peptide exchange yield does the source give for SYIVDGKII (also called SYIVDGKII) [PSG9-001] here?
The peptide exchange yield was 10 to 20%.

How did the peptide exchange yield turn out when KQHAWLPLTI (also called KQHAWLPLTI) [TCL1A-003] was run?
The peptide exchange yield was 10 to 20%.

Which peptide exchange yield does the source give for RRLWAYVTI (also called RRLWAYVTI) [ITIH6-002] here?
Its peptide exchange yield is 10 to 20%.

Which peptide exchange yield does the source give for VYFVQYKIM (also called VYFVQYKIM) [IL22RA2-001] here?
The peptide exchange yield was 10 to 20%.

For ISFSDTVNVW (also called ISFSDTVNVW) [ITIH6-001], which peptide exchange yield is on record?
The peptide exchange yield was 10 to 20%.

For IVTFMNKTLGTF (also called IVTFMNKTLGTF) [ADAM29-001], which peptide exchange yield is on record?
The peptide exchange yield was 10 to 20%.

With KVVSGFYYI (also called KVVSGFYYI) [CCR8-003] as the binder, how does the peptide exchange yield read?
Its peptide exchange yield is 10 to 20%.

For KQVIGIHTF (also called KQVIGIHTF) [SFMBT1-002], which peptide exchange yield is on record?
The peptide exchange yield was 10 to 20%.

KDQPQVPCVF (also called KDQPQVPCVF) [NAT1-001] was tested. Which peptide exchange yield did it give?
The peptide exchange yield was 10 to 20%.

With QHAWLPLTI (also called QHAWLPLTI) [TCL1A-004] as the binder, how does the peptide exchange yield read?
The peptide exchange yield was 10 to 20%.

Which peptide exchange yield does the source give for YQVAKGMEF (also called YQVAKGMEF) [FLT3-014] here?
The peptide exchange yield was 10 to 20%.

MFQEMLQRL (also called MFQEMLQRL) [TRIML2-001] was tested. Which peptide exchange yield did it give?
The peptide exchange yield was 10 to 20%.

Which peptide exchange yield does the source give for GTGKLFWVF (also called GTGKLFWVF) [BTL-003] here?
Its peptide exchange yield is 10 to 20%.

QFYSTLPNTI (also called QFYSTLPNTI) [ROS-009] was tested. Which peptide exchange yield did it give?
The peptide exchange yield was 10 to 20%.

For LIFALALAAF (also called LIFALALAAF) [GAST-001], which peptide exchange yield is on record?
The peptide exchange yield was 10 to 20%.

VTPKMLISF (also called VTPKMLISF) [OR5H8P-001] was tested. Which peptide exchange yield did it give?
The peptide exchange yield was 10 to 20%.

Which peptide exchange yield does the source give for TYFFVANKY (also called TYFFVANKY) [MMP1-011] here?
Its peptide exchange yield is 10 to 20%.

With MMALWSLLHL (also called MMALWSLLHL) [ZAC-001] as the binder, how does the peptide exchange yield read?
The peptide exchange yield was 10 to 20%.

With ATATLHLIF (also called ATATLHLIF) [PCD-007] as the binder, how does the peptide exchange yield read?
Its peptide exchange yield is 10 to 20%.

How did the peptide exchange yield turn out when VQADAKLLF (also called VQADAKLLF) [C20-002] was run?
The peptide exchange yield was 10 to 20%.

With KYKNPYGF (also called KYKNPYGF) [MMP20-001] as the binder, how does the peptide exchange yield read?
Its peptide exchange yield is 10 to 20%.

KLRALSILF (also called KLRALSILF) [PTP-039] was tested. Which peptide exchange yield did it give?
The peptide exchange yield was 10 to 20%.

IYPHGVTFSP (also called IYPHGVTFSP) [F5-004] was tested. Which peptide exchange yield did it give?
Its peptide exchange yield is 10 to 20%.

target: T1, HLA-A*24; assay: UV peptide-exchange ELISA (anti-b2m); yield grade +++ = >50
Source text: as §1, §2

How did the peptide exchange yield turn out when FYIVTRPLAF (also called FYIVTRPLAF) [SUCN-002] was run?
Its peptide exchange yield is 50 to 75%.

Which peptide exchange yield does the source give for KVWSDVTPLTF (also called KVWSDVTPLTF) [MMP11-023] here?
The peptide exchange yield was 50 to 75%.

Which peptide exchange yield does the source give for VYEHNHVSL (also called VYEHNHVSL) [BTBD16-006] here?
The peptide exchange yield was 50 to 75%.

For RIFTARLYF (also called RIFTARLYF) [AICD-001], which peptide exchange yield is on record?
Its peptide exchange yield is 50 to 75%.

How did the peptide exchange yield turn out when SYVLQIVAI (also called SYVLQIVAI) [PTP-041] was run?
The peptide exchange yield was 50 to 75%.

Which peptide exchange yield does the source give for RILTEFELL (also called RILTEFELL) [TRIM31-001] here?
The peptide exchange yield was 50 to 75%.

EYSLPVLTF (also called EYSLPVLTF) [PTP-037] was tested. Which peptide exchange yield did it give?
The peptide exchange yield was 50 to 75%.

With SYQEAIQQL (also called SYQEAIQQL) [NEFH-003] as the binder, how does the peptide exchange yield read?
Its peptide exchange yield is 50 to 75%.

With KQMQEFFGL (also called KQMQEFFGL) [MMP1-010] as the binder, how does the peptide exchange yield read?
Its peptide exchange yield is 50 to 75%.

For MDQNQVVWTF (also called MDQNQVVWTF) [ROS-008], which peptide exchange yield is on record?
Its peptide exchange yield is 50 to 75%.

For TDWSPPPVEF (also called TDWSPPPVEF) [FAM178B-001], which peptide exchange yield is on record?
Its peptide exchange yield is 50 to 75%.

Which peptide exchange yield does the source give for VGGNVTSNF (also called VGGNVTSNF) [CT45-004] here?
The peptide exchange yield was 50 to 75%.

How did the peptide exchange yield turn out when VGGNVTSSF (also called VGGNVTSSF) [CT45-005] was run?
The peptide exchange yield was 50 to 75%.

With QHMLPFWTDL (also called QHMLPFWTDL) [NLRP2-009] as the binder, how does the peptide exchange yield read?
The peptide exchange yield was 50 to 75%.

Which peptide exchange yield does the source give for LFQRVSSVSF (also called LFQRVSSVSF) [HMCN1-010] here?
Its peptide exchange yield is 50 to 75%.

How did the peptide exchange yield turn out when RYLIIKYPF (also called RYLIIKYPF) [SUCN-003] was run?
The peptide exchange yield was 50 to 75%.

For SLWREVVTF (also called SLWREVVTF) [CEP250-004], which peptide exchange yield is on record?
The peptide exchange yield was 50 to 75%.

RLGEFVLLF (also called RLGEFVLLF) [TGM6-001] was tested. Which peptide exchange yield did it give?
Its peptide exchange yield is 50 to 75%.

For IWAERIMF (also called IWAERIMF) [TDRD1-001], which peptide exchange yield is on record?
The peptide exchange yield was 50 to 75%.

How did the peptide exchange yield turn out when NAFEAPLTF (also called NAFEAPLTF) [BRCA2-004] was run?
The peptide exchange yield was 50 to 75%.

For IYFNHRCF (also called IYFNHRCF) [SFMBT1-001], which peptide exchange yield is on record?
Its peptide exchange yield is 50 to 75%.

With YFDENIQKF (also called YFDENIQKF) [HEPHL-006] as the binder, how does the peptide exchange yield read?
The peptide exchange yield was 50 to 75%.

Which peptide exchange yield does the source give for IYPDSIQEL (also called IYPDSIQEL) [LOC-019] here?
Its peptide exchange yield is 50 to 75%.

For VCWNPFNNTF (also called VCWNPFNNTF) [RNF183-001], which peptide exchange yield is on record?
Its peptide exchange yield is 50 to 75%.

Which peptide exchange yield does the source give for FLPALYSLL (also called FLPALYSLL) [CXCR3-001] here?
Its peptide exchange yield is 50 to 75%.

Which peptide exchange yield does the source give for KDLMKAYLF (also called KDLMKAYLF) [TXNDC16-006] here?
The peptide exchange yield was 50 to 75%.

QYPEFSIEL (also called QYPEFSIEL) [TGM4-001] was tested. Which peptide exchange yield did it give?
The peptide exchange yield was 50 to 75%.
